Patent US20050143472A1, “Novel treatment for pathologies associated with oxidative damage” (priority 2002, published 2005)

Test: Freeze/thaw stability of recombinant mPAO activity
Assay type: physicochemical
Experimental: Using the conditions for the steady-state kinetic assay described below, mPAO was determined to be stable at 2-4 mg/mL when frozen at −20° C. or −80° C. and thawed through several cycles. […] Thus, mPAO was stored at −20° C. in the presence of 33% (v/v) ethylene glycol. Ethylene glycol elimination and buffer exchange was accomplished easily by several concentration/dilution cycles using Centricon-10 centrifuge concentrators.

B1: mPAO: recombinant murine peroxisomal polyamine oxidase (SEQ ID NO:4) produced in E. coli (protein, listed as Mus musculus)
chain: MAFPGPRVLVVGSGIAGLGAAQKLCSHRAAPHLRVLEATASAGGRIRSERCFGGVVELGAHWIHGPSQDNPVFQLAAEFGLLGEKELSEENQLVDTGGHVALPSMIWSSSGTSVSLELMTEMARLFYGLIERTREFLNESETPMASVGEFLKKEISQQVASWTEDDEDTRKRKLAILNTFFNIKCCVSGTHSMDLVALAPFGEYTVLPGLDCILAGGYQGLTDRILASLPKDTVAFDKPVKTIHWNGSFQEAAFPGETFPVLVECEDGARLPAHHVIVTVPLGFSKEHQDTFFEPPLPAKKAEAIKKLGFGTNNKIFLEFEEPFWEPDCQFIQVVWEDTSPLQDTALSLQDTWFKKLIGFLVQPSFESSHVLCGFIAGLESEFMETLSDEEVLLSLTQVLRRVTGNPQLPAAKSVLSSRWHSAPYTRGSYSYVAVGSTGDDLDLMAQPLPADGTGTQLQVLFAGEATHRTFYSTTHGALLSGWREADRLIGLWDSQAEQSRPRL
stability of activity on freezing and thawing (30 μg/mL, several freeze/thaw cycles): activity was lost quickly
stability of activity on freezing and thawing (2-4 mg/mL, frozen at −20° C. or −80° C., several cycles): stable
stability of activity on freezing and thawing (33% (v/v) ethylene glycol added, 20 μg/mL to 4 mg/mL): stable for several cycles of freezing and thawing
